From PMC4788688, “Chemical shift assignment of the alternative scaffold protein IscA” (Biomolecular Nmr Assignments, 2016)

Target: the molecule itself
Assay: SEC; purified IscA in 20 mM Tris-HCl with 20 mM DTT or 5 mM TCEP; chromatograms showed no significant differences at 50, 150 or 1000 mM NaCl; self-association into dimers and higher species

B1: E. coli IscA protein (cluster-free) (natural protein)
chain: MSITLSDSAAARVNTFLANRGKGFGLRLGVRTSGCSGMAYVLEFVDEPTPEDIVFEDKGVKVVVDGKSLQFLDGTQLDFVKEGLNEGFKFTNPNVKDECGCGESFHV
notes: IscA of E. coli, recombinant, printed length 107 residues (11.5 kDa); cluster-free; 15N- or 13C/15N-labelled for NMR; also called alternative scaffold protein IscA; source: E. coli BL21 (DE3), pETM30 vector, purified (DEAE and Q anion exchange, Superdex 75 size exclusion)
- binding result: binds
